Measurements reported in US20260193366A1 (APOGEE THERAPEUTICS, published 2026).
Numbering of substitutions follows the chain as printed.

T1: hIL-4Rα on cells (human, UniProt P24394 26-825)
T1 sequence: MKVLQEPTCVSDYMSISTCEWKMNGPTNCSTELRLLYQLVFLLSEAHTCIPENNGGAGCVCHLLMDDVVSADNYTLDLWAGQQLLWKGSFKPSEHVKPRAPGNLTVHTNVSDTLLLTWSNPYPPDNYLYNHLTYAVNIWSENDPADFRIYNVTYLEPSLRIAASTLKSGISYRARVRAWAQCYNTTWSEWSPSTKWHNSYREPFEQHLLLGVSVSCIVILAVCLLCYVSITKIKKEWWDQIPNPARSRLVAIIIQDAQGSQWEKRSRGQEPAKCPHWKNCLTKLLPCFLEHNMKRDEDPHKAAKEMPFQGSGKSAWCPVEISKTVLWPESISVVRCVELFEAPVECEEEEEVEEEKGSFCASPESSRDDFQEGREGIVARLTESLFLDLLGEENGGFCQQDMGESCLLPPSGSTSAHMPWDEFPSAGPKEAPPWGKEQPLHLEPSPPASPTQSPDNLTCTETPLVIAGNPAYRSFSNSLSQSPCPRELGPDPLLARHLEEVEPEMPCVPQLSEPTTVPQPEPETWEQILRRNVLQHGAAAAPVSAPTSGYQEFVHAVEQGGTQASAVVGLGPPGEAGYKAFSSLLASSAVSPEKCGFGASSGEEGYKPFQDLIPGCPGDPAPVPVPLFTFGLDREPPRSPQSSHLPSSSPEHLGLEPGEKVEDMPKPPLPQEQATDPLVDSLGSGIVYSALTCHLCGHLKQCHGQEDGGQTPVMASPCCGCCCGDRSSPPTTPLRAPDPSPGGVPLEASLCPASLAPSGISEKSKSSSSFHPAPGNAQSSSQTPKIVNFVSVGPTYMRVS

T2: cynomolgus monkey IL-4Rα (cynomolgus monkey, UniProt P24394 26-231 (human entry), limits assumed)
T2 construct: also called Cyno IL-4Rα; cyIL-4Rα
T2 chain: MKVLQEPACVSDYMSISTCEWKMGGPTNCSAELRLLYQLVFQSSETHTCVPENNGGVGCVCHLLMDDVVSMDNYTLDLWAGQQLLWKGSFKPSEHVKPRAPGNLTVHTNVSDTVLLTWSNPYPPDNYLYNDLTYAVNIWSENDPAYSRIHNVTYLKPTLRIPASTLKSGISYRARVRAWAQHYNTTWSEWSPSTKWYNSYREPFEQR

T3: human IL-4Rα (human, UniProt P24394 26-232)
T3 construct: also called Hu IL-4Rα; hIL-4Rα
T3 sequence: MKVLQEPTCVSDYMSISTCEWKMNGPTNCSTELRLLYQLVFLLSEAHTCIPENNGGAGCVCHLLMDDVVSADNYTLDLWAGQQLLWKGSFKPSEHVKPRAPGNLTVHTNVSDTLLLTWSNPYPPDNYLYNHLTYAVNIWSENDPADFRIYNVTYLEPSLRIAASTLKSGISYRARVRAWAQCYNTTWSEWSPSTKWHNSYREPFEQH

B1: Construct 12 (mAb421) (antibody, IgG4, V domains shown)
VH: EVQLVESGGGLEQPGGSLRLSCAGSGFTFRDFAMTWVRQAPGKGLEWVSSISGSGGNIYYADSVKGRFTISRDNSKNTLYLQMNSLRAEDTAVYYCAKDRLSKTIRPRYYGLDVWGQGTTVTVSS
VL: DIVMTQSPLSLPVTPGEPASISCRSSQSVLYSIGYNYVDWYLQKSGQSPQLLIYLGNKRASGVPDRFSGSGSGTDFTLKISRVEAEDVGFYYCMQSLTSPYTFGQGTKLEIK
notes: VH/VL only
B2: Construct 16 (mAb424) (antibody, IgG4, V domains shown)
VH: B1 VH with D31T, F32Y, G56D, K103V
VL: B1 VL with R24T, S25A, V29L
notes: VH/VL only
B3: Construct 17 (mAb425) (antibody, IgG4, V domains shown)
VH: B1 VH with G56S, N57S, I58T, K103V, I105V
VL: B1 VL with R24T, S25A, V29L, N57S, S96A, L97Y, T98N
notes: VH/VL only
B4: Construct 18 (mAb426) (antibody, IgG4, V domains shown)
VH: B1 VH with G56D, I58T
VL: B1 VL with R24T, V29L, Y35K
notes: VH/VL only
B5: Construct 19 (mAb427) (antibody, IgG4, V domains shown)
VH: B1 VH with D31T, F32Y, G56D, I58T, L101V, K103I
VL: B1 VL with R24T, V29L, S96A, T98G
notes: VH/VL only
B6: Construct 20 (mAb428) (antibody, IgG4, V domains shown)
VH: B1 VH with G56D, I58T, K103I, I105V
VL: B1 VL with R24T, V29L, T98Q, S99T, T102V
notes: VH/VL only
B7: Construct 21 (mAb429) (antibody, IgG4, V domains shown)
VH: B1 VH with D31T, F32Y, L101V, K103I, T104Y, I105V
VL: B1 VL with R24T, S25A, V29L, N57S
notes: VH/VL only
B8: Construct 22 (mAb430) (antibody, IgG4, V domains shown)
VH: B1 VH with G56S, N57S, I58T, K103V, I105V
VL: B1 VL
notes: VH/VL only
B9: Construct 23 (mAb431) (antibody, V domains shown)
VH: B1 VH with S54G, N57S, I58T, K103V, I105V
VL: B1 VL with Y35K, N57S, K58Q, S61T
notes: VH/VL only
B10: Construct 25 (mAb433) (antibody, IgG4, V domains shown)
VH: B1 VH with G56D
VL: B1 VL with R24T, S25A, V29L, V38L, L55E
notes: VH/VL only
B11: Construct 26 (mAb434) (antibody, IgG4, V domains shown)
VH: B1 VH with S54G, N57S, I58T, K103I, T104A, I105V
VL: B1 VL with R24T, S25A, V29L
notes: VH/VL only

What was measured:
hIL-4Rα on cells [1] = target: T1, hIL-4Rα on cells; test: FACS on HEK293 cells, competitor biotin-hIL-13;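 further: stably transduced cells co-expressing both receptor chains, stained cold, with cell-bound signal read as mean fluorescence intensity by flow cytometry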
Method: Briefly, HEK293 previously transduced to stably express both hIL-13Rα and hIL-4Rα were cultured and harvested. Cells were seeded at 200,000 cells in 100 uL per well. Cells were washed and the supernatant discarded. […] The cells were stained in this mixture at 4° C. for 1 hour. […] Cells were incubated 4° C. for 1 hour, protected from light. Cells were then washed and the MFI of cells in each well were recorded by FACS using a BD FACSCanto II. Subsequent data were analyzed using GraphPad Prism.

hIL-4Rα on cells [2] = target: T1, hIL-4Rα on cells; test: cell-based or functional assay
hIL-4Rα on cells [3] = target: T1, hIL-4Rα on cells; test: FACS on HEK293 cells, competitor biotin-hIL-4;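 further: HEK293 cells stably co-expressing hIL-13Rα and hIL-4Rα, stained for 1 h at 4 °C, read-out as mean fluorescence intensity by flow cytometry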
hIL-4Rα on cells [4] = target: T1, hIL-4Rα on cells; test: cell-based or functional assay; remark: listed apart in the source
cynomolgus monkey IL-4Rα = target: T2, cynomolgus monkey IL-4Rα; test: SPR, Carterra LSA;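 further: antibodies captured on an anti-human Fc sensor chip, antigen injected at several concentrations, association and dissociation rates fitted with a 1:1 Langmuir model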
human IL-4Rα = target: T3, human IL-4Rα; test: SPR, Carterra LSA;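 further: antibodies captured on an anti-human Fc sensor chip, antigen injected at several concentrations, association and dissociation rates fitted with a 1:1 Langmuir model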
hIL-4Rα on cells [5] = target: T1, hIL-4Rα on cells; test: cell-based or functional assay; remark: listed apart in the source

Binder	Relative Blockade of IL-13 Binding IC50 (hIL-4Rα on cells [1])	Relative Inhibition of IL-4 induced TARC IC50 (hIL-4Rα on cells [2])	Relative Inhibition of IL-13 induced TARC IC50 (hIL-4Rα on cells [2])	Relative Blockade of IL-4 Binding IC50 (hIL-4Rα on cells [3])	Relative Inhibition of IL-4 induced TF-1 Proliferation IC50 (hIL-4Rα on cells [4])	Relative Inhibition of IL-13 induced TF-1 Proliferation IC50 (hIL-4Rα on cells [4])	KD Relative to Dupilumab (cynomolgus monkey IL-4Rα)	Kd (cynomolgus monkey IL-4Rα)	KD Relative to Dupilumab (human IL-4Rα)	Kd (human IL-4Rα)	Relative Inhibition of IL-4 induced pSTAT6 IC50 (hIL-4Rα on cells [5])	Relative Inhibition of IL-13 induced pSTAT6 IC50 (hIL-4Rα on cells [5])
B1	0.921 relative to dupilumab	0.38 relative to dupilumab	0.521 relative to dupilumab	1.07 relative to dupilumab	0.526 relative to dupilumab	0.87 relative to dupilumab	0.02	15.1 nM	1.91	0.0215 nM	0.457 relative to dupilumab	0.672 relative to dupilumab
B2	0.904 relative to dupilumab	1.63 relative to dupilumab	1.03 relative to dupilumab	0.895 relative to dupilumab	1.04 relative to dupilumab	1.44 relative to dupilumab	0.14	89.3 nM	1.4	0.0158 nM	0.825 relative to dupilumab	1.41 relative to dupilumab
B3	1.17 relative to dupilumab	0.491 relative to dupilumab	0.789 relative to dupilumab	1.11 relative to dupilumab	0.729 relative to dupilumab	0.844 relative to dupilumab	0.09	58.3 nM	1.49	0.0169 nM	0.876 relative to dupilumab	0.863 relative to dupilumab
B4	0.813 relative to dupilumab	0.407 relative to dupilumab	0.447 relative to dupilumab	0.85 relative to dupilumab	0.626 relative to dupilumab	0.606 relative to dupilumab	0.09	58 nM	2.65	0.03 nM	0.517 relative to dupilumab	0.446 relative to dupilumab
B5	1.02 relative to dupilumab	0.756 relative to dupilumab	0.834 relative to dupilumab	0.867 relative to dupilumab	0.835 relative to dupilumab	0.55 relative to dupilumab	0.08	50.2 nM	3.19	0.036 nM	0.844 relative to dupilumab	0.885 relative to dupilumab
B6	1.14 relative to dupilumab	3.63 relative to dupilumab	1.83 relative to dupilumab	1.44 relative to dupilumab	1.12 relative to dupilumab	1.38 relative to dupilumab	0.13	80.8 nM	1.41	0.0159 nM	1.28 relative to dupilumab	1.86 relative to dupilumab
B7	0.706 relative to dupilumab	0.342 relative to dupilumab	0.313 relative to dupilumab	0.749 relative to dupilumab	0.509 relative to dupilumab	0.498 relative to dupilumab	0.02	14.4 nM	0.76	0.00857 nM	0.305 relative to dupilumab	0.447 relative to dupilumab
B8	0.785 relative to dupilumab	0.488 relative to dupilumab	0.535 relative to dupilumab	0.829 relative to dupilumab	0.746 relative to dupilumab	0.495 relative to dupilumab	0.05	28.7 nM	0.77	0.00866 nM	0.749 relative to dupilumab	0.612 relative to dupilumab
B9	0.793 relative to dupilumab	0.557 relative to dupilumab	0.579 relative to dupilumab	1.07 relative to dupilumab	0.823 relative to dupilumab	0.732 relative to dupilumab	0.1	63.3 nM	0.67	0.00762 nM	0.483 relative to dupilumab	0.475 relative to dupilumab
B10	1.09 relative to dupilumab	1.17 relative to dupilumab	1.78 relative to dupilumab	1.36 relative to dupilumab	2.04 relative to dupilumab	1.31 relative to dupilumab	1.12	703 nM	0.94	0.0107 nM	1.33 relative to dupilumab	1.82 relative to dupilumab
B11	0.486 relative to dupilumab	0.763 relative to dupilumab	1.73 relative to dupilumab	0.763 relative to dupilumab	0.7 relative to dupilumab	0.83 relative to dupilumab	0.26	166 nM	0.78	0.00883 nM	0.661 relative to dupilumab	0.627 relative to dupilumab
